Assay [1] deals with T1, mTOR (mammalian target of rapamycin), endogenous protein of human cell lines (human, UniProt P42345 1-2549). Kind of assay: co-IP from transfected HEK293T cells, western blot (FIG. 6B, 8D).
Assay [2] deals with T1, mTOR (mammalian target of rapamycin), …. Kind of assay: anti-HA immunoprecipitates from transfected HEK293T cells, mTOR western blot (FIG. 6B). The procedure:
3 million HEK293T cells in 6-cm dishes were transfected with plasmid constructs and amounts indicated in the Figure legends using the Lipofectamine 2000 transfection reagent (Life Technology). 24 hours after DNA addition, cells were rinsed once with PBS and lysed in 300 μl of ice-cold Buffer B. Immune complexes were prepared from cleared supernatants using 3 μg polyclonal anti-myc or monoclonal anti-HA antibodies and 20 μl of a 50% slurry protein G-Sepharose. After a 3 hour incubation, immuneprecipitates were washed six times with Buffer B and twice with Wash Buffer 2. Bound proteins were eluted in 1× sample buffer, and mTOR or HA- or myc-tagged proteins were detected by immunoblotting as described (Burnett et al., PNAS 95:1432-143 (1998)).

The text below walks through data of patent US20040072207A1 (WHITEHEAD INSTITUTE FOR BIOMEDICAL RESEARCH, published 2004).

Positions count from the first letter of the chain named.

B1: HA-raptor mut1 (194YDC196-AAA) (other, not shown: small tags and cut ends)
chain: MESEMLQSPLLGLGEEDEADLTDWNLPLAFMKKRHCEKIEGSKSLAQSWRMKDRMKTVSVALVLCLNVGVDPPDVVKTTPCARLECWIDPLSMGPQKALETIGANLQKQYENWQPRARYKQSLDPTVDEVKKLCTSLRRNAKEERVLFHYNGHGVPRPTVNGEVWVFNKNYTQYIPLSIYDLQTWMGSPSIFVAAASNAGLIVKSFKQFALQREQELEVAAINPNHPLAQMPLPPSMKNCIQLAACEATELLPMIPDLPADLFTSCLTTPIKIALRWFCMQKCVSLVPGVTLDLIEKIPGRLNDRRTPLGELNWIFTAITDTIAWNVLPRDLFQKLFRQDLLVASLFRNFLLAERIMRSYNCTPVSSPRLPPTYMHAMWQAWDLAVDICLSQLPTIIEEGTAFRHSPFFAEQLTAFQVWLTMGVENRNPPEQLPIVLQVLLSQVHRLRALDLLGRFLDLGPWAVSLALSVGIFPYVLKLLQSSARELRPLLVFIWAKILAVDSSCQADLVKDNGHKYFLSVLADPYMPAEHRTMTAFILAVIVNSYHTGQEACLQGNLIAICLEQLNDPHPLLRQWVAICLGRIWQNFDSARWCGVRDSAHEKLYSLLSDPIPEVRCAAVFALGTFVGNSAERTDHSTTIDHNVAMMLAQLVSDGSPMVRKELVVALSHLVVQYESNFCTVALQFIEEEKNYALPSPATTEGGSLTPVRDSPCTPRLRSVSSYGNIRAVATARSLNKSLQNLSLTEESGGAVAFSPGNLSTSSSASSTLGSPENEEHILSFETIDKMRRASSYSSLNSLIGVSFNSVYTQIWRVLLHLAADPYPEVSDVAMKVLNSIAYKATVNARPQRVLDTSSLTQSAPASPTNKGVHIHQAGGSPPASSTSSSSLTNDVAKQPVSRDLPSGRPGTTGPAGAQYTPHSHQFPRTRKMFDKGPEQTADDADDAAGHKSFISATVQTGFCDWSARYFAQPVMKIPEEHDLESQIRKEREWRFLRNSRVRRQAQQVIQKGITRLDDQIFLNRNPGVPSVVKFHPFTPCIAVADKDSICFWDWEKGEKLDYFHNGNPRYTRVTAMEYLNGQDCSLLLTATDDGAIRVWKNFADLEKNPEMVTAWQGLSDMLPTTRGAGMVVDWEQETGLLMSSGDVRIVRIWDTDREMKVQDIPTGADSCVTSLSCDSHRSLIVAGLGDGSIRVYDRRMALSECRVMTYREHTAWVVKASLQKRPDGHIVSVSVNGDVRIFDPRMPESVNVLQIVKGLTALDIHPQADLIACGSVNQFTAIYNSSGELINNIKYYDGFMGQRVGAISCLAFHPHWPHLAVGSNDYYISVYSVEKRVR
notes: also called mutant 1
Turning to B1, the binding result in assay [1] is given as “no binding”.

B2: HA-raptor mut 7 (738SLQN741-PAAA) (other, not shown: small tags and cut ends)
chain: B1 chain with A194Y, A195D, A196C, S738P, L739A, Q740A, N741A
notes: also called mutant 7
Turning to B2, the binding result in assay [2] was “binds”.

B3: HA-raptor mut 9 (1191RVYDRR1196-DAAADD) (other, not shown: small tags and cut ends)
chain: B1 chain with A194Y, A195D, A196C, R1191D, V1192A, Y1193A, D1194A, R1195D, R1196D
Regarding B3, the binding result in assay [2] is “no binding”.

B4: HA-raptor mut2 (261DLF263-AAA) (other, not shown: small tags and cut ends)
chain: B1 chain with A194Y, A195D, A196C, D261A, L262A, F263A
Take B4: the binding result in assay [2] is given as “no binding”.

B5: HA-raptor mut3 (313NWIF316-AAAA) (other, not shown: small tags and cut ends)
chain: B1 chain with A194Y, A195D, A196C, N313A, W314A, I315A, F316A
Regarding B5, in assay [2], the binding result was “no binding”.
